{
  "source": "patent US20020127673A1",
  "about": "(REGENTS OF THE UNIVERSITY OF MICHIGAN, published 2002)",
  "binders": {"B1": {"name": "Nod2 lacking the LRRs (Nod2 1-744) (other)", "chain": "MGEEGGSASHDEEERASVLLGHSPGCEMCSQEAFQAQRSQLVELLVSGSLEGFESVLDWLLSWEVLSWEDYEGFHLLGQPLSHLARRLLDTVWNKGTWACQKLIAAAQEAQADSQSPKLHGCWDPHSLHPARDLQSHRPAIVRRLHSHVENMLDLAWERGFVSQYECDEIRLPIFTPSQRARRLLDLATVKANGLAAFLLQHVQELPVPLALPLEAATCKKYMAKLRTTVSAQSRFLSTYDGAETLCLEDIYTENVLEVWADVGMAGPPQKSPATLGLEELFSTPGHLNDDADTVLVVGEAGSGKSTLLQRLHLLWAAGQDFQEFLFVFPFSCRQLQCMAKPLSVRTLLFEHCCWPDVGQEDIFQLLLDHPDRVLLTFDGFDEFKFRFTDRERHCSPTDPTSVQTLLFNLLQGNLLKNARKVVTSRPAAVSAFLRKYIRTEFNLKGFSEQGIELYLRKRHHEPGVADRLIRLLQETSALHGLCHLPVFSWMVSKCHQELLLQEGGSPKTTTDMYLLILQHFLLHATPPDSASQGLGPSLLRGRLPTLLHLGRLALWGLGMCCYVFSAQQLQAAQVSPDDISLGFLVRAKGVVPGSTAPLEFLHITFQCFFAAFYLALSADVPPALLRHLFNCGRPGNSPMARLLPTMCIQASEGKDSSVAALLQKAEPHNLQITAAFLAGLLSREHWGLLAECQTSEKALLRHQACARWCLARSLRKHFHSIPPAAPGEAKSVHAMPGFIWLIR", "notes": "also called Nod2ΔLRR"}, "B2": {"name": "procaspase-9 (enzyme, UniProt P55211 1-416, looked up)", "chain": "MDEADRRLLRRCRLRLVEELQVDQLWDALLSRELFRPHMIEDIQRAGSGSRRDQARQLIIDLETRGSQALPLFISCLEDTGQDMLASFLRTNRQAAKLSKPTLENLTPVVLRPEIRKPEVLRPETPRPVDIGSGGFGDVGALESLRGNADLAYILSMEPCGHCLIINNVNFCRESGLRTRTGSNIDCEKLRRRFSSLHFMVEVKGDLTAKKMVLALLELAQQDHGALDCCVVVILSHGCQASHLQFPGAVYGTDGCPVSVEKIVNIFNGTSCPSLGGKPKLFFIQACGGEQKDHGFEVASTSPEDESPGSNPEPDATPFQEGLRTFDQLDAISSLPTPSDIFVSYSTFPGFVSWRDPKSGSWYVETLDDIFEQWAHSEDLQSLLLRVANAVSVKGIYKQMPGCFNFLRKKLFFKTS", "notes": "Construct and tag not described"}, "B3": {"name": "Bcl-10 (other, UniProt O95999 1-233, looked up)", "chain": "MEPTAPSLTEEDLTEVKKDALENLRVYLCEKIIAERHFDHLRAKKILSREDTEEISCRTSSRKRAGKLLDYLQENPKGLDTLVESIRREKTQNFLIQKITDEVLKLRNIKLEHLKGLKCSSCEPFPDGATNNLSRSNSDESNFSEKLRASTVMYHPEGESSTTPFFSTNSSLNLPVLEVGRTENTIFSSTTLPRPGDPGAPPLPPDLQLEEEGTCANSSEMFLPLRSRTVSRQ", "notes": "as for B2"}, "B4": {"name": "caspase-4 (enzyme, UniProt P49662 1-377, looked up)", "chain": "MAEGNHRKKPLKVLESLGKDFLTGVLDNLVEQNVLNWKEEEKKKYYDAKTEDKVRVMADSMQEKQRMAGQMLLQTFFNIDQISPNKKAHPNMEAGPPESGESTDALKLCPHEEFLRLCKERAEEIYPIKERNNRTRLALIICNTEFDHLPPRNGADFDITGMKELLEGLDYSVDVEENLTARDMESALRAFATRPEHKSSDSTFLVLMSHGILEGICGTVHDEKKPDVLLYDTIFQIFNNRNCLSLKDKPKVIIVQACRGANRGELWVRDSPASLEVASSQSSENLEEDAVYKTHVEKDFIAFCSSTPHNVSWRDSTMGSIFITQLITCFQKYSWCCHLEEVFRKVQQSFETPRAKAQMPTIERLSMTRYFYLFPGN", "notes": "as for B2"}},
  "key": {"[1]": {"molecular_target": "the molecule itself", "assay": "not described ('our observations')"}, "HA-tagged wild-type Nod2": {"molecular_target": "T1, HA-tagged wild-type Nod2 (human, UniProt Q9HC29 1-1040)", "T1 construct": "Expressed by transfection in HEK293T cells and tested in cell lysates; also called wt Nod2; pcDNA3-Nod2-HA; not shown: HA tag", "assay": "co-immunoprecipitation from co-transfected HEK293T cells", "source_text": "The CARD motif functions as an effector domain that mediates specific homophilic interaction with downstream CARD-containing molecules (Hofmann et al., Trends Biochem. Sci. 22: 155-156 [1997])."}},
  "data": [
    {"binder": "B1", "values": [
      {"measurement": "binding result", "setting": "[1]", "value": "binds"}
    ]},
    {"binder": "B2", "values": [
      {"measurement": "binding result", "setting": "HA-tagged wild-type Nod2", "value": "no binding"}
    ]},
    {"binder": "B3", "values": [
      {"measurement": "binding result", "setting": "HA-tagged wild-type Nod2", "value": "no binding"}
    ]},
    {"binder": "B4", "values": [
      {"measurement": "binding result", "setting": "HA-tagged wild-type Nod2", "value": "no binding"}
    ]}
  ]
}
